The record followed here is publication PMC3716775, “Interaction between Trehalose and MTHase from Sulfolobus solfataricus Studied by Theoretical Computation and Site-Directed Mutagenesis” (PLoS ONE, 2013).

B1: MTHase (maltooligosyltrehalose trehalohydrolase) from S. solfataricus ATCC 35092 (Saccharolobus solfataricus P2) (protein)
chain: MTFGYKLDEDGVTFNLWAPYQRKVKLKILNRGIYEMERDDKGYFTITLDNVRVGDRYKYILDDNSEVPDPASRYQPEGVHGYSEIISPDFEWDDENSVKVKREDLVIYELHIGTFTSEGTFEGVIKKLNYLKELGVTAIEIMPIAQFPGKKDWGYDGVYLYAVQNSYGGPSGFRKLVNEAHKLGLAVILDVVYNHVGPEGNYMVKLGPYFSEKYKTPWGLTFNFDDAGSDEVRKFILENVEYWINEFHVDGFRLDAVHAIIDNSPKHILEDIADVVHKYDKIVIAESDLNDPRVVNPKEKCGYNIDAQWVDDFHHAIHAFLTGERQGYYSDFGSIGDIVKSYKDVFIYDGKYSNFRRKTHGKSVGDLDGCKFVVYIQNHDQVGNRGGGERLIKLVDKESYKIAAALYILSPYIPMIFMGEEYGEENPFYYFSDFSDPKLIQGVREGRRRENGQETDPQSDCTFNDSKLSWKINDDILSFYKSLIKIRKEYGLACNRKLSVENGNYWLTVKGNGCLAVYVFSKSVIEMKYSGTLVLSSNSSFPSQITESKYELDKGFALYKL
notes: expressed from pET-15b-ΔH-treZ in E. coli BL21-CodonPlus (DE3)-RIL; heat treatment 80 °C, Q-Sepharose; docking model was the KM1 enzyme (PDB 1EH9), not the assayed protein
B2: MTHase (maltooligosyltrehalose trehalohydrolase) from S. solfataricus ATCC 35092 (Saccharolobus solfataricus P2; H195A) (protein)
chain: MTFGYKLDEDGVTFNLWAPYQRKVKLKILNRGIYEMERDDKGYFTITLDNVRVGDRYKYILDDNSEVPDPASRYQPEGVHGYSEIISPDFEWDDENSVKVKREDLVIYELHIGTFTSEGTFEGVIKKLNYLKELGVTAIEIMPIAQFPGKKDWGYDGVYLYAVQNSYGGPSGFRKLVNEAHKLGLAVILDVVYNAVGPEGNYMVKLGPYFSEKYKTPWGLTFNFDDAGSDEVRKFILENVEYWINEFHVDGFRLDAVHAIIDNSPKHILEDIADVVHKYDKIVIAESDLNDPRVVNPKEKCGYNIDAQWVDDFHHAIHAFLTGERQGYYSDFGSIGDIVKSYKDVFIYDGKYSNFRRKTHGKSVGDLDGCKFVVYIQNHDQVGNRGGGERLIKLVDKESYKIAAALYILSPYIPMIFMGEEYGEENPFYYFSDFSDPKLIQGVREGRRRENGQETDPQSDCTFNDSKLSWKINDDILSFYKSLIKIRKEYGLACNRKLSVENGNYWLTVKGNGCLAVYVFSKSVIEMKYSGTLVLSSNSSFPSQITESKYELDKGFALYKL
notes: as for B1
B3: MTHase (maltooligosyltrehalose trehalohydrolase) from S. solfataricus ATCC 35092 (Saccharolobus solfataricus P2; E450A) (protein)
chain: MTFGYKLDEDGVTFNLWAPYQRKVKLKILNRGIYEMERDDKGYFTITLDNVRVGDRYKYILDDNSEVPDPASRYQPEGVHGYSEIISPDFEWDDENSVKVKREDLVIYELHIGTFTSEGTFEGVIKKLNYLKELGVTAIEIMPIAQFPGKKDWGYDGVYLYAVQNSYGGPSGFRKLVNEAHKLGLAVILDVVYNHVGPEGNYMVKLGPYFSEKYKTPWGLTFNFDDAGSDEVRKFILENVEYWINEFHVDGFRLDAVHAIIDNSPKHILEDIADVVHKYDKIVIAESDLNDPRVVNPKEKCGYNIDAQWVDDFHHAIHAFLTGERQGYYSDFGSIGDIVKSYKDVFIYDGKYSNFRRKTHGKSVGDLDGCKFVVYIQNHDQVGNRGGGERLIKLVDKESYKIAAALYILSPYIPMIFMGEEYGEENPFYYFSDFSDPKLIQGVREGRRRANGQETDPQSDCTFNDSKLSWKINDDILSFYKSLIKIRKEYGLACNRKLSVENGNYWLTVKGNGCLAVYVFSKSVIEMKYSGTLVLSSNSSFPSQITESKYELDKGFALYKL
notes: as for B1
B4: MTHase (maltooligosyltrehalose trehalohydrolase) from S. solfataricus ATCC 35092 (Saccharolobus solfataricus P2; Y155A) (protein)
chain: MTFGYKLDEDGVTFNLWAPYQRKVKLKILNRGIYEMERDDKGYFTITLDNVRVGDRYKYILDDNSEVPDPASRYQPEGVHGYSEIISPDFEWDDENSVKVKREDLVIYELHIGTFTSEGTFEGVIKKLNYLKELGVTAIEIMPIAQFPGKKDWGADGVYLYAVQNSYGGPSGFRKLVNEAHKLGLAVILDVVYNHVGPEGNYMVKLGPYFSEKYKTPWGLTFNFDDAGSDEVRKFILENVEYWINEFHVDGFRLDAVHAIIDNSPKHILEDIADVVHKYDKIVIAESDLNDPRVVNPKEKCGYNIDAQWVDDFHHAIHAFLTGERQGYYSDFGSIGDIVKSYKDVFIYDGKYSNFRRKTHGKSVGDLDGCKFVVYIQNHDQVGNRGGGERLIKLVDKESYKIAAALYILSPYIPMIFMGEEYGEENPFYYFSDFSDPKLIQGVREGRRRENGQETDPQSDCTFNDSKLSWKINDDILSFYKSLIKIRKEYGLACNRKLSVENGNYWLTVKGNGCLAVYVFSKSVIEMKYSGTLVLSSNSSFPSQITESKYELDKGFALYKL
notes: as for B1
B5: MTHase (maltooligosyltrehalose trehalohydrolase) from S. solfataricus ATCC 35092 (Saccharolobus solfataricus P2; Y155F) (protein)
chain: MTFGYKLDEDGVTFNLWAPYQRKVKLKILNRGIYEMERDDKGYFTITLDNVRVGDRYKYILDDNSEVPDPASRYQPEGVHGYSEIISPDFEWDDENSVKVKREDLVIYELHIGTFTSEGTFEGVIKKLNYLKELGVTAIEIMPIAQFPGKKDWGFDGVYLYAVQNSYGGPSGFRKLVNEAHKLGLAVILDVVYNHVGPEGNYMVKLGPYFSEKYKTPWGLTFNFDDAGSDEVRKFILENVEYWINEFHVDGFRLDAVHAIIDNSPKHILEDIADVVHKYDKIVIAESDLNDPRVVNPKEKCGYNIDAQWVDDFHHAIHAFLTGERQGYYSDFGSIGDIVKSYKDVFIYDGKYSNFRRKTHGKSVGDLDGCKFVVYIQNHDQVGNRGGGERLIKLVDKESYKIAAALYILSPYIPMIFMGEEYGEENPFYYFSDFSDPKLIQGVREGRRRENGQETDPQSDCTFNDSKLSWKINDDILSFYKSLIKIRKEYGLACNRKLSVENGNYWLTVKGNGCLAVYVFSKSVIEMKYSGTLVLSSNSSFPSQITESKYELDKGFALYKL
notes: as for B1
B6: MTHase (maltooligosyltrehalose trehalohydrolase) from S. solfataricus ATCC 35092 (Saccharolobus solfataricus P2; D156A) (protein)
chain: MTFGYKLDEDGVTFNLWAPYQRKVKLKILNRGIYEMERDDKGYFTITLDNVRVGDRYKYILDDNSEVPDPASRYQPEGVHGYSEIISPDFEWDDENSVKVKREDLVIYELHIGTFTSEGTFEGVIKKLNYLKELGVTAIEIMPIAQFPGKKDWGYAGVYLYAVQNSYGGPSGFRKLVNEAHKLGLAVILDVVYNHVGPEGNYMVKLGPYFSEKYKTPWGLTFNFDDAGSDEVRKFILENVEYWINEFHVDGFRLDAVHAIIDNSPKHILEDIADVVHKYDKIVIAESDLNDPRVVNPKEKCGYNIDAQWVDDFHHAIHAFLTGERQGYYSDFGSIGDIVKSYKDVFIYDGKYSNFRRKTHGKSVGDLDGCKFVVYIQNHDQVGNRGGGERLIKLVDKESYKIAAALYILSPYIPMIFMGEEYGEENPFYYFSDFSDPKLIQGVREGRRRENGQETDPQSDCTFNDSKLSWKINDDILSFYKSLIKIRKEYGLACNRKLSVENGNYWLTVKGNGCLAVYVFSKSVIEMKYSGTLVLSSNSSFPSQITESKYELDKGFALYKL
notes: as for B1
B7: MTHase (maltooligosyltrehalose trehalohydrolase) from S. solfataricus ATCC 35092 (Saccharolobus solfataricus P2; R447A) (protein)
chain: MTFGYKLDEDGVTFNLWAPYQRKVKLKILNRGIYEMERDDKGYFTITLDNVRVGDRYKYILDDNSEVPDPASRYQPEGVHGYSEIISPDFEWDDENSVKVKREDLVIYELHIGTFTSEGTFEGVIKKLNYLKELGVTAIEIMPIAQFPGKKDWGYDGVYLYAVQNSYGGPSGFRKLVNEAHKLGLAVILDVVYNHVGPEGNYMVKLGPYFSEKYKTPWGLTFNFDDAGSDEVRKFILENVEYWINEFHVDGFRLDAVHAIIDNSPKHILEDIADVVHKYDKIVIAESDLNDPRVVNPKEKCGYNIDAQWVDDFHHAIHAFLTGERQGYYSDFGSIGDIVKSYKDVFIYDGKYSNFRRKTHGKSVGDLDGCKFVVYIQNHDQVGNRGGGERLIKLVDKESYKIAAALYILSPYIPMIFMGEEYGEENPFYYFSDFSDPKLIQGVREGARRENGQETDPQSDCTFNDSKLSWKINDDILSFYKSLIKIRKEYGLACNRKLSVENGNYWLTVKGNGCLAVYVFSKSVIEMKYSGTLVLSSNSSFPSQITESKYELDKGFALYKL
notes: as for B1

Substrate in this data set: OC[C@H]1O[C@H](O[C@H]2O[C@H](CO)[C@@H](O[C@H]3O[C@H](CO)[C@@H](O[C@H]4O[C@H](CO)[C@@H](O[C@H]5O[C@H](CO)[C@@H](O)[C@H](O)[C@H]5O)[C@H](O)[C@H]4O)[C@H](O)[C@H]3O)[C@H](O)[C@H]2O)[C@H](O)[C@@H](O)[C@@H]1O
The experiment in a line: initial rates of G3T hydrolysis, Michaelis-Menten fit. In kind it is biochemical, Saccharolobus solfataricus. Particulars: 50 mM citrate-phosphate pH 5, 60 °C. The source says: initial rates of […] hydrolysis, Michaelis-Menten fit on […] (maltooligosyltrehalose trehalohydrolase) from S. solfataricus ATCC 35092
Usually Km stands for the substrate concentration at which the rate is half of its maximum. By kcat is commonly meant the maximal rate divided by the concentration of active sites. Broadly, the kcat/Km is the second-order rate constant that governs catalysis at low substrate concentration. B1: the Km came out at 5.22 ± 0.59 mM, the kcat stood at 947 ± 40 s⁻¹ and the kcat/Km came out at 182000 ± 14000 M⁻¹ s⁻¹.

Regarding B2, the Km is 4.18 ± 0.31 mM, the kcat is 2.15 ± 0.05 s⁻¹ and the kcat/Km is 510 ± 30 M⁻¹ s⁻¹.

B3: the Michaelis constant (Km) was determined as 7.48 ± 0.70 mM, the kcat was determined as 1070 ± 50 s⁻¹ and the kcat/Km came to 144000 ± 8000 M⁻¹ s⁻¹.

Consider B4, for which the Km was found to be 39.2 ± 2.8 mM, the kcat worked out at 44.8 ± 1.7 s⁻¹ and the kcat/Km came to 1140 ± 40 M⁻¹ s⁻¹.

Turning to B5, the Km was 5.02 ± 0.34 mM, the kcat was found to be 27.8 ± 0.7 s⁻¹ and the kcat/Km came out at 5540 ± 250 M⁻¹ s⁻¹.

As to B6, the Km amounted to 12.9 ± 2.3 mM, the kcat is 608 ± 62 s⁻¹ and the kcat/Km was 47300 ± 3700 M⁻¹ s⁻¹.

Consider B7, for which the Km stood at 10.7 ± 1.3 mM, the kcat worked out at 303 ± 16 s⁻¹ and the kcat/Km worked out at 28200 ± 2000 M⁻¹ s⁻¹.
